# Reference: the DeepSol protein solubility set
# Assay: soluble on expression in E. coli; label from the status in PepcDB or PDB records
row,Sequence,soluble on expression in E. coli
1,MSLRIADKTVTRAILERHGFTFKKSFGQNFLTDTNILQKIVDTAEIDKGVNVIEIGPGIGALTEFLAENAAEVMAFEIDDRLIPILADTLARFDNVQVVNQDILKADLQTQIQAFKNPDLPIKVVANLPYYITTPILMHLIESKIPFAEFVVMIQKEVADRISAMPNTKAYGSLSIAVQYYMTAKVSFIVPRTVFVPAPNVDSAILKMVRRDQPVVSVQDEDFFFRVSKVAFVHRRKTLWNNLTSHFGKSEDTKAKLEKALEIAKIKPSIRGEALSIPDFASLADALKEVGIEGHHHHHH,soluble
2,MAISFDYSNALPFMQENELDYLSEFVKAAHHMLHERKGPGSDFLGWVDWPIRYDKNEFSRIKQAAERIRNHSDALVVIGIGGSYLGARAAIEALSHTFHNQMNDTTQIYFAGQNISSTYISHLLDVLEGKDLSINVISKSGTTTEPAIAFRIFRDYMEKKYGKEEARKRIYVTTDRTKGALKKLADQEGYETFVIPDNIGGRYSVLTAVGLLPIAVAGLNIDRMMEGAASAYHKYNNPDLLTNESYQYAAVRNILYRKGKAIELLVNYEPSLHYVSEWWKQLFGESEGKDQKGLFPASVDFTTDLHSMGQYVQEGRRNLIETVLHVKKPQIELTIQEDPENIDGLNFLAGKTLDEVNKKAFQGTLLAHVDGGVPNLIVELDEMNEYTFGEMVYFFEKACGISGHLLGVNPFDQPGVEAYKKNMFALLGKPGFEDEKAALMKRLSK,soluble
3,MSLSPGKKRAMINRDHPKLSISQQCKLVSLSRSAFYYTPAGIDADTLSMMKEIDRVFTKYPFFGSRQIAAYLRREGIVVGRHRVRRLMAKMGLEAVYKRPRTSQPHPQHPVFPYLLRKMVIDRPNQVWCADITFVPVRNGFLYLVAIMDWATRKVLSWRLSNTMHADFCVEALSEAIARYGPPEIMNTDQGSQFTGSAWITTLTEAGVRISMDGRGRYLDNIFIERLWRSLKQEAIYLEEINEGFRARRVIKGWMAFYNTSRPHSALDRQTPDDAYWAGLEERHAAEGHHHHHH,not soluble
4,MGSDKIHHHHHHMIKVEIDEGSGFCFGVVTAIHKAEEELAKGETLYCLGDIVHNSREVERLKAMGLITINRDEFRQLRNAKVLLRAHGEPPETYQIAHKNNIEIIDATCPVVLRLQKRIKQEFRKEDFEEKQIVIYGKNGHAEVLGLVGQTGGQAIVIESAEEAKKLDFTKSIRLFSQTTKSLDEFQEIVEYIKLHISPDATFEYYDTICRQVANRMPNLREFAATHDLIFFVSGKKSSNGKMLFEECLKVNANSHLIDNEKEIDPTLLRNVKSIGVCGATSTPKWLMEKIHDHIQLLIKD,not soluble
5,MADFITRAIELDEQYSQAILGINDQNLKVLENLLDCTIFVRGTRATLSGRDFEVSRGIRVLQELQSMAKRGHAISPDAVKNAVAIVAEDTPHSVNAVLASDIVARRGKVIRAKTLGQKDYVDAIDHNTIVFGLGPAGSGKTYLAMAKAVQALQAKQVNRIILTRPAVEAGEKLGFLPGTLNEKIDPYLRPLHDALRDMVDPEIIPKLMEAGIVEVAPLAYMRGRTLNDAFVILDEAQNTTPAQMKMFLTRLGFGSKMVVTGDITQVDLPGGQKSGLRLVRDILRGVEGVHFAELGSDDVVRHQLVGRIVDAYDAYEEQLKDK,not soluble
6,QGHMAWSAQQYLKFEDERTRPARDLLAQVPLERVLNGYDLGCGPGNSTELLTDRYGVNVITGIDSDDDMLEKAADRLPNTNFGKADLATWKPAQKADLLYANAVFQWVPDHLAVLSQLMDQLESGGVLAVQMPDNLQEPTHIAMHETADGGPWKDAFSGGGLRRKPLPPPSDYFNALSPKSSRVDVWHTVYNHPMKDADSIVEWVKGTGLRPYLAAAGEENREAFLADYTRRIAAAYPPMADGRLLLRFPRLFVVAVKK,soluble
7,MEALNKKLFRLNSKEKIQKSTGTFVPDLPNGSFLKENGSMELLNDYFFKNKDIYISKHNRFADYPYHTHQFLELNYMYSGSSEQVIEGNKETLHEGELLLLDSACHHSIKATGEKDILINILFRDQQISLEWLTSIKKKNSLLFDFLLHSSVSEQSLKKYIIFQSAQIPHIQQFLNQIITEYFLEEEFSSRIITLYLPILFTELVRKCDTYLADDLTSAQSSTTSTMLEVIKLIESNYRTITLTSAADTLGYNKNYLSNFIKKNTNFTFTELVNKQKMLAANLLIETTSTPIELIIEKVGFSNKTYFYSLYKKTFNLLPNEVRNKK,not soluble
8,MNIIKGNIASPLGFSADGLHAGFKKKKLDFGWIVSEVPANVAGVFTTNKVIAAPLKLTKNSIEKSGKMQAIVVNSGIANSCTGKQGEKDAFKMQQLAANKLQIQPEYVGVASTGVIGKVMPMSILKNGFSKLVKNGNADDFAKAILTTDTHTKTCVVNEEFGSDTVTMAGVAKGSGMIHPNLATMLAFITCDANISSQTLQQALKDVVEVTFNQITVDGDTSTNDMVLVMSNGCTNNNEIKKDSEDYYKFKQMLLYIMTDLAKSIARDGEGASKLIEVTVKGAKESSAARMIAKSVVGSSLVKTAIFGEDPNWGRIIAAAGYAKTYFDINQVDIFIGRIPVLIRSSPVKYDKEEIQEIMSAEEISIQLDLHQGNCEGQAWGCDLSYDYVKINALYTTLEHHHHHH,not soluble
9,MSFLKCGVCTEDYSNVITNRHPKNLTCGHSICKACSSKLVSNFKILCPFCRKTTELRENENLQTNFALLEAISLFNDINESVTEPRSSGAPPNCEEHTYNLAEFVCISPNCSSRSKLMCRTCEEFGVHAGHRKGLLQVEAKKVRQNLLERQRKLQVNKKQVDDKIQALEKAALKKNDELYKEKYDEITRHYDRIRSSVAEREKTSKEVLKKSVLTSEEDNRMGQISNHVIRHLLEKKCEEVEQLVGMTDFELYRVKDKVDWNDESFSFSDVKEKPPMELKTLHVKLPEFRFEDSS,not soluble
10,MTESLNRDLPVLLATLNKLSSDADRILLENREDIRKIAYNLSIVMEKVKDDLPVLVENLKELSVNLNTVVKNNKVNINKTLVSLRKTTENLSRASYKLDKILADLESGKGTLGKLLKDEELYENVNQGVKALGKAGKVVEKTQLYIGLRGELYREGDSKGILSVRLVPDRDKYYLLEVVGDSRGRVYREEYLDGREVVKKEFKPEFTLQYARNFSLFGRTLTLRGGLKENTGGVGADYYIYRDKYLFADLWDFGRKDRPQDKDLKPNLQIGIHWYINRNLYVRFGGDDLLNSKLRGFFGGVGLEFVDEDLKYLLGGIGVPIR,not soluble
11,MSVPSSLSQSAINANSHGGPALSLPLPLHAAHNQLLNAKLQATAVGPKDLRSAMGEGGGPEPGPANAKWLKEGQNQLRRAATAHRDQNRNVTLTLAEEASQEPEMAPLGPKGLIHLYSELELSAHNAANRGLRGPGLIISTQEQGPDEGEEKAAGEAEEEEEDDDDEEEEEDLSSPPGLPEPLESVEAPPRPQALTDGPREHSKSASLLFGMRNSAASDEDSSWATLSQGSPSYGSPEDTDSFWNPNAFETDSDLPAGWMRVQDTSGTYYWHIPTGTTQWEPPGRASPSQGSSPQEESQLTWTGFAHGEGFEDGEFWKDEPSDEAPMELGLKEPEEGTLTFPAQSLSPEPLPQEEEKLPPRNTNPGIKCFAVRSLGWVEMTEEELAPGRSSVAVNNCIRQLSYHKNNLHDPMSGGWGEGKDLLLQLEDETLKLVEPQSQALLHAQPIISIRVWGVGRDSGRDFAYVARDKLTQMLKCHVFRCEAPAKNIATSLHEICSKIMAERRNARCLVNGLSLDHSKLVDVPFQVEFPAPKNELVQKFQVYYLGNVPVAKPVGVDVINGALESVLSSSSREQWTPSHVSVAPATLTILHQQTEAVLGECRVRFLSFLAVGRDVHTFAFIMAAGPASFCCHMFWCEPNAASLSEAVQAACMLRYQKCLDARSQASTSCLPAPPAESVARRVGWTVRRGVQSLWGSLKPKRLGAHTP,soluble
12,MAQKPLRLLACGDVEGKFDILFNRVQAIQKKSGNFDLLLCVGNFFGSTQDAEWEEYKTGIKKVPIQTYVLGANNQETVKYFQDADGCELAENITYLGRKGIFTGSSGLQIVYLSGTESLNEPVPGYSFSPKDVSSLRMMLCTTSQFKGVDILLTSPWPKCVGNFGNSSGEVDTKKCGSALVSSLATGLKPRYHFAALEKTYYERLPYRNHIILQENAQHATRFIALANVGNPEKKKYLYAFSIVPMKLMDAAELVKQPPDVTENPYRKSGQEASIGKQILAPVEESACQFFFDLNEKQGRKRSSTGRDSKSSPHPKQPRKPPQPPGPCWFCLASPEVEKHLVVNIGTHCYLALAKGGLSDDHVLILPIGHYQSVVELSAEVVEEVEKYKATLRRFFKSRGKWCVVFERNYKSHHLQLQVIPVPISCSTTDDIKDAFITQAQEQQIELLEIPEHSDIKQIAQPGAAYFYVELDTGEKLFHRIKKNFPLQFGREVLASEAILNVPDKSDWRQCQISKEDEETLARRFRKDFEPYDFTLDD,soluble
